Consider one molecule from patent US20030013169, “Transcription factor E2F DNA-binding domain inhibitor peptides and their use” (published 2003).

This data set deals with E2F1/DP1 heterodimer (Homo sapiens, UniProt Q01094;Q14186 Q01094:64-301,Q14186:85-249). The experiment in a line: EMSA; binding inhibited by peptides SEQ 2, 4, 5 with IC50 50-100 uM; about 100-fold lower for MAP-branched SEQ 2; room temperature. The conditions noted are these: tags: His-E2F1 (pET28b); GST-DP1; label: 32P fill-in. How it is done:
Purified E2F1 N1-His (64-301) and DP1 N2-GST (84-249) were incubated at 10 μg/ml in a buffer containing 10 mM HEPES, […], 1 mM EDTA, […], 33 mg/ml BSA and 0.1 μg of sonicated salmon sperm for 10 minutes on ice. ³²P-labelled probe was added and the reaction mixture was incubated at room temperature for 20 minutes. Probes were labelled by filling-in 5′ overhanging ends of 4-7 bases. Samples were run on 4% non denaturing polyacrylamide gel in 0.5% TBE at 4° C. Gels were exposed to X-ray films. Nuclear extract (3 μg) was incubated in 17 μl buffer containing 0.3 M NaCl, 0.4 M Tris pH 7.9, 100 mM EDTA, 0.4 M DTT, 13% glycerol, 1 μg of sonicated salmon sperm on ice. The samples were then incubated for 10 minutes at 30° C. and cooled on ice. ³²P-labelled probe was added, the reaction mixtures were incubated for another 10 minutes at 30° C. and then cooled on ice.
The inhibitory potential of the peptides on E2F function was analysed in band shift assays with recombinant E2F1 and DP1. […] The IC₅₀ concentrations for the 3 peptides were in the range of 50-100 μM. Inhibition to various extends was also observed using recombinant fragments of E2F2, E2F3, E2F4, E2F5, respectively. Approximately 100-fold lower IC50 values were found with a branched molecule consisting of 4 copies of SEQ ID NO:2 linked by MAP (multiple antigen peptide).
In general terms: In EMSA bound probe runs differently from free probe, usually more slowly.

Chain of E2F1/DP1 heterodimer (Q01094 64-301, chain 1 of 2): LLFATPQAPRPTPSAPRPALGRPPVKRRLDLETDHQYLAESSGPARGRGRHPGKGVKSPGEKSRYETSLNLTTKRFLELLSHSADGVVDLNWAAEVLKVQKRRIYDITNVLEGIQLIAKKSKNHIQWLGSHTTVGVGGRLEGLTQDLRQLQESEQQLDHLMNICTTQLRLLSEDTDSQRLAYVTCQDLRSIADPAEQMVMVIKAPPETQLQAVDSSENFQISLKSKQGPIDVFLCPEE
Chain of E2F1/DP1 heterodimer (Q14186 85-249, chain 2 of 2): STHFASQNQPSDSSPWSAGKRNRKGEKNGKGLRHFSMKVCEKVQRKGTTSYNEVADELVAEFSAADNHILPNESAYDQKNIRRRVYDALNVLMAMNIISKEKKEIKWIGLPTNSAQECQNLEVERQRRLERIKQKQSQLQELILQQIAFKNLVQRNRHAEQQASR

B1: B-myb E2F probe (dsDNA)
DNA 1: CGACGCGCTTGGCGGGAGATAGAAAAGTGC
DNA 2: GCACTTTTCTATCTCCCGCCAAGCGCGTCG
With B1, the binding result was “binds”.
